The text below walks through data of patent US20210230294A1 (Incyte, published 2021).

Assay [1] addresses T1, mouse CD73 (SEQ ID NO:71) (mouse, UniProt Q61503 29-551).
T1 construct: Open conformation (normal SPR running buffer); also called Murine; murine CD73
T1 sequence: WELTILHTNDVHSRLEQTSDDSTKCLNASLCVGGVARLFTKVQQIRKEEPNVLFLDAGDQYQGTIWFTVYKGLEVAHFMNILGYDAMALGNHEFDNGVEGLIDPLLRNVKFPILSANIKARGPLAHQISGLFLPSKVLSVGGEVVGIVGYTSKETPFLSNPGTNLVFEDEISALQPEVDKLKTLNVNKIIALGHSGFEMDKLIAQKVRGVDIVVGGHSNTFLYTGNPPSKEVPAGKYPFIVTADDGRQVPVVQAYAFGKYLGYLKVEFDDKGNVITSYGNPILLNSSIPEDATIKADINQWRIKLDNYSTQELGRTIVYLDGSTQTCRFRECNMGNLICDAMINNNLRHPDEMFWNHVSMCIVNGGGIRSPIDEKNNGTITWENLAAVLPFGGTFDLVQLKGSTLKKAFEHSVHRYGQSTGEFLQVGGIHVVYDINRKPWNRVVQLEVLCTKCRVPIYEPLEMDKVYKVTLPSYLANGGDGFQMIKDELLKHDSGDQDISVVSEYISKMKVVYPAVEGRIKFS
Put plainly: SPR (Biacore 8K), antibody captured on anti-human Fc, CD73 as analyte, open conformation. As for the experimental part:
(§1) The SPR running buffer (10 mM HEPES, 150 mM NaCl, 3 mM EDTA and 0.05% v/v Surfactant P20, pH 7.4) was prepared from 10×HBS-EP Buffer (GE Healthcare). Anti-human Fc antibodies (GE Healthcare) were immobilized via amine coupling on all sixteen flow cells of an S series sensor chip CM5 (GE Healthcare). The immobilization levels were ˜9000 RU for all flow cells. […] The non-cleavable ADP analogue APCP (adenosine-5′-(α,β-methylene) diphosphate) with the presence of Zn²⁺ can be used to shift the CD73 conformational equilibrium from open towards closed. Therefore, recombinant CD73 was incubated with SPR running buffer in the presence of 100 μM APCP and 10 μM ZnCl₂ (closed SPR running buffer) to study the binding of anti-CD73 antibody to the CD73 in the closed conformation. To achieve this, the ABA injection feature in Biacore 8K was used. For open conformation, the ABA injection sequence started with 60 seconds injection of running buffer. Then, CD73 3-fold serial dilution concentration series prepared from CD73 stock (BPS Bioscience) and running buffer were injected for 180 seconds immediately followed by running buffer for 240 seconds. For closed conformation, the normal SPR running buffer was replaced by closed SPR running buffer. Surface was regenerated with 30 seconds injection of 3 M MgCl₂.

Assay [2] has as its target T2, cynomolgus CD73 (SEQ ID NO:72) (cynomolgus, UniProt P21589 27-549 (human entry)).
T2 construct: Open conformation (normal SPR running buffer)
T2 chain: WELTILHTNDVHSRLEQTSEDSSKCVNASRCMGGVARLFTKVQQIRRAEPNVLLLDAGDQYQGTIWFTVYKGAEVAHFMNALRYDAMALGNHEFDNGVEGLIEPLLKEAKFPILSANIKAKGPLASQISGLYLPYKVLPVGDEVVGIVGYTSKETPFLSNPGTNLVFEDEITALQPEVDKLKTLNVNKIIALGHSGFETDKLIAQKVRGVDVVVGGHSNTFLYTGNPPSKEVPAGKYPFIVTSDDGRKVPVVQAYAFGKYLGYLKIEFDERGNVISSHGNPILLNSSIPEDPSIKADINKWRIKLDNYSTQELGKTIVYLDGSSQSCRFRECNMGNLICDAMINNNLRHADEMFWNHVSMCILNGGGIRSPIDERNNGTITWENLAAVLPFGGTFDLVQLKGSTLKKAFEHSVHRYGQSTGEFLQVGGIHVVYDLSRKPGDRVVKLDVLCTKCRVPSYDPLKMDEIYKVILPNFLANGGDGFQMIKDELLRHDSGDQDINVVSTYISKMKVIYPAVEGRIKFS
The description is as above. As for the experimental part:
as §1

Assay [3] concerns the target T3, recombinant human CD73 (SEQ ID NO:70) (human, UniProt P21589 27-549).
T3 construct: Soluble recombinant protein in normal SPR running buffer (open conformation), the soluble enzyme assay and HDX-MS; SPR stock bought from BPS Bioscience; also called rhuCD73; CD73 in the open conformation
T3 sequence: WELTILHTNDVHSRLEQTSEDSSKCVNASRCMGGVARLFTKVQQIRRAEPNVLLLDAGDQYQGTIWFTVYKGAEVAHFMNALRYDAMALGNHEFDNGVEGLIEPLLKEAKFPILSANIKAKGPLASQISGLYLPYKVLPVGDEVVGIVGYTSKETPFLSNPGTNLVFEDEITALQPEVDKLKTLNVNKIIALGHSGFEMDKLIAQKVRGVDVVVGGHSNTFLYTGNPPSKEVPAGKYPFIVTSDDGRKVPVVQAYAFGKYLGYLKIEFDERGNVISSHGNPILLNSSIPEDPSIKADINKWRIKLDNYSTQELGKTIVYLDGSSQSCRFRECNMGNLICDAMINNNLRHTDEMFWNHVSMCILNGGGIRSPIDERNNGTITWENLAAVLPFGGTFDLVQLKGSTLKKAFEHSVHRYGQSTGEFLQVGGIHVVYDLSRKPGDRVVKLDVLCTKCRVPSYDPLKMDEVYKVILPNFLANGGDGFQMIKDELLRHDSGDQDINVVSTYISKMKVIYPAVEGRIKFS
Described as above. As for the experimental part: as §1

Assay [4] concerns the target T4, cynomolgus CD73 in the closed conformation (cynomolgus, UniProt P21589 27-549 (human entry)).
T4 construct: Same protein as m2 in buffer with 100 uM APCP and 10 uM ZnCl2 (closed conformation); also called Cynomolgus, Closed
T4 chain: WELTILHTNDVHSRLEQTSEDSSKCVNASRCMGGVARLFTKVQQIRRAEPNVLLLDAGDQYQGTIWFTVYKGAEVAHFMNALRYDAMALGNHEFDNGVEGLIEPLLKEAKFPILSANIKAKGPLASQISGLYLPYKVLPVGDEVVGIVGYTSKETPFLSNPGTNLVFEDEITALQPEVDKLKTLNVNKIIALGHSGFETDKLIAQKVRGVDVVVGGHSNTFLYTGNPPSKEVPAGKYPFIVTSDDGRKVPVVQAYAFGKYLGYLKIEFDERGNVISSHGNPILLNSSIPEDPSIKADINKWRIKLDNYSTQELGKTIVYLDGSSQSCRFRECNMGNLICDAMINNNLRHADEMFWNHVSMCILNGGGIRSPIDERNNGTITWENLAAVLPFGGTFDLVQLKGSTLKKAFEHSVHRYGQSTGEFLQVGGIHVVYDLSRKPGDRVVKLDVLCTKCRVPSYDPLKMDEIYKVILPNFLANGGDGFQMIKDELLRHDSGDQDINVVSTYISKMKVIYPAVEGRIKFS
Description: SPR (Biacore 8K), antibody captured on anti-human Fc, CD73 as analyte, buffer with APCP and ZnCl2 (closed conformation). As for the experimental part:
as §1

The target of assay [5] is T5, recombinant human CD73 in the closed conformation (human, UniProt P21589 27-549).
T5 construct: Kept apart from m1 because results differ between the two states; also called human CD73, Closed
T5 sequence: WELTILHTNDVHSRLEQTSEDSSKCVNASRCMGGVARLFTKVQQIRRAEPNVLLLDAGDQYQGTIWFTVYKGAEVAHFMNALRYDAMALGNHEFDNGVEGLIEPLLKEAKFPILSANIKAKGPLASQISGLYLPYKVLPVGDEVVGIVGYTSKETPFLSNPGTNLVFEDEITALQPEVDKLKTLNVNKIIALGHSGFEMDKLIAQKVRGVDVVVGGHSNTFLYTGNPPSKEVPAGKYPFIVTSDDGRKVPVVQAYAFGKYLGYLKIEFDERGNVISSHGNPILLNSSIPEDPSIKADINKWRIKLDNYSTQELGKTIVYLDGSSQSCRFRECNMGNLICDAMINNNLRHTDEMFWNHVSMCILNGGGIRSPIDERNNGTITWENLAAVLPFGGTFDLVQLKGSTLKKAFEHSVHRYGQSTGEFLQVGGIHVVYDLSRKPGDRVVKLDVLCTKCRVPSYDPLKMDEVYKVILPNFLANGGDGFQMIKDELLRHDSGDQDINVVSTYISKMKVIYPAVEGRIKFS
Described as above. As for the experimental part:
as §1

In assay [6] the target is T6, mouse CD73 in the closed conformation (mouse, UniProt Q61503 29-551).
T6 construct: Same protein as m3 in buffer with 100 uM APCP and 10 uM ZnCl2 (closed conformation); also called Murine, Closed
T6 sequence: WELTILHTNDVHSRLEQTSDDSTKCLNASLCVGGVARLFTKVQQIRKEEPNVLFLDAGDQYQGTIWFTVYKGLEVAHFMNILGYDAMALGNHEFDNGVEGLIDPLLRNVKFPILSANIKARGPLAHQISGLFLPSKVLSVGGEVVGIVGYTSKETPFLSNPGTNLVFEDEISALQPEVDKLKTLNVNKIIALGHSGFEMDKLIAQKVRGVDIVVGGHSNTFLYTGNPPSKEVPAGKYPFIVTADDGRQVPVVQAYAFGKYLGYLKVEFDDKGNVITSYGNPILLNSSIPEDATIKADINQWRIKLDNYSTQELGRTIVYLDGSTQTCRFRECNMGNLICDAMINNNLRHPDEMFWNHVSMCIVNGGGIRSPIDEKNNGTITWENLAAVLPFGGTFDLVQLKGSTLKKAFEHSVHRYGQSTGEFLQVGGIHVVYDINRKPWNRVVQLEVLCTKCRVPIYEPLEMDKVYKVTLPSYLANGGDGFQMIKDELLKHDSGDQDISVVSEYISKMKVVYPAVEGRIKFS
Described as above. As for the experimental part:
as §1

Assay [7] deals with T7, human CD73 on the cell surface (MDA-MB-231 and A375 cells) (human, UniProt P21589 27-549).
T7 construct: also called cell surface CD73; cellular CD73
T7 sequence: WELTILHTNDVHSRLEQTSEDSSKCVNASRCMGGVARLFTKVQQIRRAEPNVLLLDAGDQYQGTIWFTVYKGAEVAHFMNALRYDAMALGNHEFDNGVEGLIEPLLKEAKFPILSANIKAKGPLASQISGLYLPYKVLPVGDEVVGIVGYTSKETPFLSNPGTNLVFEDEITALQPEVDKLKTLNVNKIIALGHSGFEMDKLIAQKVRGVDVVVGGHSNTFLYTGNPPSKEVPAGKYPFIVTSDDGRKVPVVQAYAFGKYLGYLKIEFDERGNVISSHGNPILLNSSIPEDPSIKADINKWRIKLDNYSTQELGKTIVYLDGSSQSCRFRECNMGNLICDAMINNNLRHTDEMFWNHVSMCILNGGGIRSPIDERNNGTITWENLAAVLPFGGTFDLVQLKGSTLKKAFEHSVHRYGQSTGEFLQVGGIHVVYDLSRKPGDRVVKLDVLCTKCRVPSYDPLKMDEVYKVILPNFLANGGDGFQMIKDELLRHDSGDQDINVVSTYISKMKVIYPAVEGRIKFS
Put plainly: flow cytometry on MDA-MB-231 cells, PE-conjugated secondary antibody, GMFI. As for the experimental part: Cells were stained with the indicated concentration of antibodies for 1 hour on ice. Cells were then washed and stained goat anti-mouse secondary conjugated to PE for 30 minute on ice. Cells were then washed and analyzed by flow cytometry. The GMFI of CD73 staining is graphed (FIG. 13).

B1: CL25 (chimeric antibody, murine VH/VL with human IgG1/kappa constant regions) (antibody, V domains shown)
VH: QVQLQQSGAELARPGASVKLSCRASGYTFTSYGLSWVKQRTGQGLEWIGEIYPGSGNTYYNEKFKGKATLTADKSSSTAYMELRSLTSEDSAVYFCARYDYLGSSYGFDYWGQGTTLTVSS
VL: DIVMTQSHKFMSTSVGDRVSITCKASQDVSTAVAWYQQKPGQSPKLLIYSASYRYNGVPDRFTGSGSGTDFTFTISSVQAEDLAVYYCQQHYNTPYTFGGGTKLEIKR
notes: also called Chimeric antibody CL25
Regarding B1, the binding result in assay [1] and in assay [6] was “no binding” throughout. The Kd in assay [2] was below 0.658 nM; in assay [3], below 0.394 nM; in assay [4], 0.529 nM; in assay [5] it was 0.381 nM. In addition, the koff turned out to be 0.000658 s⁻¹ in assay [2], 0.000394 s⁻¹ in assay [3], 0.000495 s⁻¹ in assay [4] and 0.000344 s⁻¹ in assay [5]. Besides, the on-rate constant (kon) is above 1e+06 M⁻¹ s⁻¹ in assay [2], above 1e+06 M⁻¹ s⁻¹ in assay [3], 936000 M⁻¹ s⁻¹ in assay [4] and 903000 M⁻¹ s⁻¹ in assay [5].

B2: 3-F03_411 (antibody, human IgG1, kappa, N297A)
heavy: not shown
light: IQMTQSPSSLSASVGDRVTITCRASQGISNYLAWYQQKPGKAPKLLIYAASTLQSGVPSRFSGSGSGTDFTLTISSLQPEDFATYYCQQSYSTPHFGQGTRLEIKRTVAAPSVFIFPPSDEQLKSGTASVVCLLNNFYPREAKVQWKVDNALQSGNSQESVTEQDSKDSTYSLSSTLTLSKADYEKHKVYACEVTHQGLSSPVTKSFNRGEC
In the case of B2, in assay [7], the “EC50 (read off the curve)” value was around 1 µg/mL.
